Data on 13 substances can be found in article PMC7928716.

Test [1] has as its target MAP1LC3C ATG8 (2–125) (human) (UniProt Q9BXW4). Kind of test: fluorescence polarisation.
Test [2] addresses MAP1LC3A ATG8 (2–119) (human) (UniProt Q9H492). Kind of test: fluorescence polarisation.
The target of test [3] is […]2 ATG8 (2–115) (human) (UniProt P60520). Kind of test: fluorescence polarisation.
In test [4] the target is MAP1LC3B ATG8 (2–119) (human) (UniProt Q9GZQ8). Kind of test: fluorescence polarisation.
Test [5] addresses FITC-labeled ACE2(775–790) peptide, pTyr781 (human). Kind of test: fluorescence polarisation.
The target in test [6] is FITC-labeled ACE2(775–790) peptide, unphosphorylated (human). Kind of test: fluorescence polarisation.
Test [7] concerns the target FITC-labeled ACE2(775–790) peptide, pSer783 (human). Kind of test: fluorescence polarisation.
Test [8] addresses AP2 μ2 160-435 (UniProt Q96CW1). Kind of test: fluorescence polarisation.
For test [9] the target is unchanged. Kind of test: FP displacement of FITC-ATG9A probe. As to conditions: reference: unphosphorylated peptide; sites Y781.
Test [10] has as its target GABARAP ATG8 (2-115) (human) (UniProt O95166). Kind of test: fluorescence polarisation.

Sequence of […]2 ATG8 (2–115) (human) (P60520 2-115): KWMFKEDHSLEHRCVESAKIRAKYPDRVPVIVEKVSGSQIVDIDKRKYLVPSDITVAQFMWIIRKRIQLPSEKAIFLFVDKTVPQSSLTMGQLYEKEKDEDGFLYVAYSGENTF
Sequence of MAP1LC3C ATG8 (2–125) (human) (Q9BXW4 2-125): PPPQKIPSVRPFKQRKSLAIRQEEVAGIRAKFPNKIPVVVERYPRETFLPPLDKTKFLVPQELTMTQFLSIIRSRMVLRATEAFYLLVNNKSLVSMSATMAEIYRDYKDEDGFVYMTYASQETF
Sequence of GABARAP ATG8 (2-115) (human) (O95166 2-115): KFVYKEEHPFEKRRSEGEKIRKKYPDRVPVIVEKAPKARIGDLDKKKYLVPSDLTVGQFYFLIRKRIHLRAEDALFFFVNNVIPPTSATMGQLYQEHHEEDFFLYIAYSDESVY

Take integrin β3 tail peptide, pTyr785: the Ki in [1] was determined as 83 µM; in test [2], 38 µM; in test [3], 89 µM; in test [4] it was 81 µM.

Take “GABARAP ATG8 (2-115) (from UniProt O95166 2-115) (domain or fragment)”: the Kd in test [5], in [6] and in test [7] was over 100 µM throughout.

As for “ACE2(775–790) peptide, unphosphorylated, unlabeled (displacing peptide)”, the Ki in test [8] is 101 µM.

On to “NCK1 SH2 (275–377) (from UniProt P16333 275-377) (domain or fragment)”, for which the Kd in test [5], in test [6] and in [7] was over 100 µM throughout.

In the case of “ACE2 775-790 (from UniProt Q9BYF1) pTyr781 peptide”, the Ki entry in test [9] is recorded as “lost; reference 101 ± 5”.

Turning to integrin β3 tail peptide, pSer778, the inhibition constant (Ki) is 16.1 µM in test [1], 29.4 µM in [2] and over 100 µM in test [4].

Take integrin β3 tail peptide, pThr779: the Ki in test [1] is 82 µM; in test [2] it was over 100 µM; in test [3], over 100 µM; in test [4], over 100 µM.

Turning to “FYN SH2 (142–251) (from UniProt P06241 142-251) (domain or fragment)”, the Kd in [6] and in test [7] was over 100 µM in each case.

Take “integrin β3 tail peptide, pThr779/pTyr785”: the inhibition constant Ki in [10] came to 17.8 µM; in [1] it was 8 µM; in test [2] it was 8.5 µM; in test [4], 15 µM.

For “integrin β3 tail peptide, unphosphorylated”, the inhibition constant (Ki) in test [10], in [1], in test [2], in test [3] and in test [4] was over 100 µM throughout.

integrin β3 tail peptide, pThr777: the inhibition constant (Ki) in test [10] is 47 µM; in test [1] it was 73 µM; in test [2], over 100 µM; in [4], over 100 µM.

On to “AP2 μ2 (160–435) (from UniProt Q96CW1 160-435) (domain or fragment)”, for which the dissociation constant Kd in test [5] was over 100 µM; in test [6], 60 µM; in [7], 30 µM.

As to “MAP1LC3A ATG8 (2–119) (from UniProt Q9H492 2-119) (domain or fragment)”, the Kd in test [5], in test [6] and in [7] was over 100 µM in each case.
